The test deals with E. coli biotin carboxyl carrier protein (His-BCCP), subunit of acetyl-CoA carboxylase (E. coli) (UniProt P0ABD8).

GlnB (PII) from Synechococcus elongatus PCC7942, wild type, sequence (P0A3F4 whole entry): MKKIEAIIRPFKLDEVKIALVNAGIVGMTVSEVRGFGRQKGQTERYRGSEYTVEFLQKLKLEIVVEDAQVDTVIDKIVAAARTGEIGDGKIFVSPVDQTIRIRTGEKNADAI

As for “GlnB (PII) from Synechococcus elongatus PCC7942, wild type (from UniProt P0A3F4 1-112) (natural protein)”, the EC50 of inhibition of reconstituted E. coli ACC activity by increasing GlnB (coupled PK/LDH assay, 10 mM ATP) turned out to be 310 nM and the maximum inhibition of reconstituted E. coli ACC activity (coupled PK/LDH assay, 10 mM ATP) was 93%.

The values are drawn from publication PMC5080355, “Interaction of the Nitrogen Regulatory Protein GlnB (PII) with Biotin Carboxyl Carrier Protein (BCCP) Controls Acetyl-CoA Levels in the Cyanobacterium Synechocystis sp. PCC 6803” (Frontiers in Microbiology, 2016).
